Here are results for 1 protein from PMC7591462, “The Diversity and Similarity of Transmembrane Trimerization of TNF Receptors” (Frontiers in Cell and Developmental Biology, 2020).

This data set concerns the molecule itself. Put plainly: SDS-PAGE of bicelle-reconstituted protein; protein reconstituted in DMPC-DH6PC bicelles (q = 0.5; DMPC:DH6PC approximately 1:2), 20 mM sodium phosphate pH 6.8; mixed with LDS loading buffer without heating or reducing agents; NuPAGE 12% gel, 200 V on ice.

B1: human TNFR1 TM fragment, residue 209-238 (TNFR1 TMH), C223A M233A (domain or fragment, UniProt P19438 209-238, looked up)
chain: GTTVLLPLVIFFGLALLSLLFIGLAYRYQR
notes: TNFR1 (tumor necrosis factor receptor 1), human, isoform 1, transmembrane fragment residues 209-238 with C223A and M233A; Released from His9-TrpLE by cyanogen bromide at a methionine added between TrpLE and the fragment; Isotope-labelled (15N, 13C, 2H) for NMR; also called TNFR TMH; TMH of TNFR1; source: reconstituted in DMPC-DH6PC bicelles; not shown: His9, N-terminal, cleaved; TrpLE, …
As a reminder, the stoichiometry N is a count of units in the complex or per binding partner. In the case of B1, the “stoichiometry N” value stood at 3.
